Reference: patent US20160199440A1 (UNIVERSITY OF ROCHESTER, published 2016)

T1: Claudin 1 (endogenous, in 16HBE human bronchial epithelial cells) (human, UniProt O95832 1-211)
T1 sequence (looked up): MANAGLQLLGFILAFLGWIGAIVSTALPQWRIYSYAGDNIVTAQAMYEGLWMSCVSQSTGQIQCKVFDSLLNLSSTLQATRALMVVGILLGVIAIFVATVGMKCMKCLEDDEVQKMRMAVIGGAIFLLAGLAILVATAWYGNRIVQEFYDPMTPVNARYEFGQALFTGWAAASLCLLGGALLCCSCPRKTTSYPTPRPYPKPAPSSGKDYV


Target: T1, Claudin 1 (endogenous, in 16HBE human …)
Assay: cell-based or functional assay

Row | Binder | enhancement of penetration of labeled Synagis antibody (168 kD), 2.4 µM peptide [fold] | enhancement of penetration of labeled Synagis antibody (168 kD), 12 µM peptide [fold] | increase in FD-40 permeability, 2.4 µM peptide [fold] | increase in FD-40 permeability, 12 µM peptide [fold] | increase in fluorescein permeability, 2.4 µM peptide [fold] | increase in fluorescein permeability, 12 µM peptide [fold] | increase in FITC-dextran 40 kDa (FD-40) permeability, 2.4 µM peptide [fold] | increase in fluorescein (0.4 kDa) permeability, 2.4 µM peptide [fold]
1 | H-SILTGVSTLDQSLKQLSNFSQAVSTQSSR-NH2 [Peptide 2a, scrambled peptide] | 4.9 | 5.6 | 25.3 | 30.5 | 5.6 | 16.4 |  | 
2 | H-SSVSQSTGQIQSKVFDSLLNLSSTLQATR-NH2 [Peptide 1a, hCldn1 (53-81, C54,64S)] | 2.5 | 3.2 |  | 16.8 |  | 6.7 | 11.2 | 4.1
